The values below come from article PMC10063446 (Nature Immunology, 2023).

In experiment [1] the target is T1, recombinant wild-type SARS-CoV-2 S trimer (ELISA antigen) (SARS-CoV-2 wild-type, UniProt P0DTC2).
T1 construct: also called S^WT trimer; recombinant S protein; source: bought: Sino Biological
Briefly: ELISA. Particulars: one partner purified. In general terms: An ELISA detects its analyte on a solid surface through an enzyme-linked reagent.

For experiment [2], the target named is T2, wild-type SARS-CoV-2 S protein expressed on the surface of HEK 293T cells (SARS-CoV-2 wild-type (MN908947.3), UniProt P0DTC2).
T2 construct: also called S^WT protein
Briefly: flow cytometry on cells. Particulars: one partner purified. On the technique in general: In flow cytometry, cells or beads pass a laser one at a time.

For experiment [3], the target named is SARS-CoV-2 RBD immobilised on the CM5 chip (SARS-CoV-2 wild-type (assumed)). Briefly: SPR. The settings on record: both partners purified.
In experiment [4] the target is T3, recombinant RBD protein of wild-type SARS-CoV-2 (ELISA antigen) (SARS-CoV-2 wild-type, UniProt P0DTC2).
T3 construct: No catalogue number printed
Briefly: ELISA. Particulars: one partner purified.

B1: P2-1B1 (full IgG1) (antibody, V domains shown)
VH: QVQLVQSGAEVKRPGSSVKVSCKASGGTFSSYAISWVRQAPGQGPEWMGGIIPIFGTPHNAQKFQGRVTITADESTSTAYMELSSLRSEDTAMYYCSRTKGDILTGYTDYYFDSWGQGTLVTVSS
VL: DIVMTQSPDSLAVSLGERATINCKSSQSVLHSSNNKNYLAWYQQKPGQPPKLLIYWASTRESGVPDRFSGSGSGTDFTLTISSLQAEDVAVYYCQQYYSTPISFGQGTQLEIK
Regarding B1, the binding result in experiment [1] is reported as “binds”.

B2: P5-1H1 (full IgG1) (antibody, V domains shown)
VH: EVQLVESGGGLIQPGGSLRLSCAASGITVSSNYMTWVRQPPGKGLEWVSVIYSGGSTFYADPVKGRFTISRDNSRNTLYLQMNSLRAEDTAVYYCARDLQVYGMDVWGQGTTVTVSS
VL: DIQLTQSPSFLSASVGDRVTITCRASQGISNFLAWYQQKPGKAPKLLIYAASTLQGGVPSTFSGSGSGTEFTLTISSLQPEDFATYYCQHLNDYPLFGGGTRVEIK
On to B2, for which the binding result in experiment [1] and in experiment [2] was “binds” throughout.

B3: P5S-3B11 (full IgG1) (antibody, V domains shown)
VH: EVQLVESGGGLVQPGGSLRISCAASGLTFTGYWMNWVRQAPGKGLEWVANIKEDGSEKYYVDSVKGRFTISRDNAKNSLYLQMNSLRVEDTAVYYCARLRWLRGNFDHWGQGTLVTVSS
VL: NFMLTQPHSVSESPGKTVTISCTGSNGYIANNYVQWYQQRPGSVPTVVIYEDNQRPSGVPDRFSGSIDSSSNSASLIISGLKTEDEADYYCQSYDTPNVVFGGGTKLTVL
notes: IgG1; group 2
As to B3, the binding result in experiment [3] is given as “binds”.

B4: P2S-2E9 (full IgG1) (antibody, V domains shown)
VH: QITLKESGPTLVKPTQTLTLTCTFSGFSLSTSGVGVGWIRQPPGKALEWLALIYWDDDKRYSPSLKSRLTITKDTSKNQVVLTMTNMDPVDTATYYCARHRIGYIFDYWGQGTLVTVSS
VL: QSALTQPASVSGSPGQSITISCTGTSSDVGDFNYVSWYQQHPGKAPKLMIYDVTKRPSGVSNRFSGSKSGNTASLTISGLQAEDEADYCCSSYTTSSISFGGGTKLTVL
Turning to B4, the binding result in experiment [3], in experiment [4], in experiment [1] and in experiment [2] was “binds” throughout.

B5: P5-1C8 (full IgG1) (antibody, V domains shown)
VH: EVQLVESGGGLIQPGGSLRLSCAASEIIVSRNYMNWVRQAPGKGLEWVSVIYSGGSTFYADSVKGRFTISRDNSENTLYLQMNSLRAEDTAVYYCARGYGDYYFDYWGRGTLVTVSS
VL: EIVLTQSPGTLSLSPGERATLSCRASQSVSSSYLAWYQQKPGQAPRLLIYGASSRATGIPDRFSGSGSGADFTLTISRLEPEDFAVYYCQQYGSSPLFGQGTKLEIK
On to B5, for which, in experiment [1], the binding result is reported as “binds”.
